The chains are these.
T1: IL-18 receptor (IL-18Rα and IL-18Rβ) on HEK-Blue IL-18 cells (UniProt Q13478 19-541; O95256 20-599, limits assumed)
T1 sequence (looked up) 1: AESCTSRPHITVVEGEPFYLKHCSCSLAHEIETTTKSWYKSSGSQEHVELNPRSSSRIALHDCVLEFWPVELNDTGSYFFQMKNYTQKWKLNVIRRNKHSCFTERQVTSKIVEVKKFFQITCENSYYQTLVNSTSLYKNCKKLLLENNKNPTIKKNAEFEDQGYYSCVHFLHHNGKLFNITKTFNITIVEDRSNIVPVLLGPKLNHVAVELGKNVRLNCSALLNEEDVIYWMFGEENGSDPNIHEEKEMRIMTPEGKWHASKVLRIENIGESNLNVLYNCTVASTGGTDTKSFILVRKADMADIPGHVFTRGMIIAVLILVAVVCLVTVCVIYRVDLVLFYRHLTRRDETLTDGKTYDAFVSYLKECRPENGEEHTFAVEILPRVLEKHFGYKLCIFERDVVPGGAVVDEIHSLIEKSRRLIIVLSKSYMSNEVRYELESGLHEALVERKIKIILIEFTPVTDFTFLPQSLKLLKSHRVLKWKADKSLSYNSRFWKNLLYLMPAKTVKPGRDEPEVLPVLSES
T1 sequence (looked up) 2: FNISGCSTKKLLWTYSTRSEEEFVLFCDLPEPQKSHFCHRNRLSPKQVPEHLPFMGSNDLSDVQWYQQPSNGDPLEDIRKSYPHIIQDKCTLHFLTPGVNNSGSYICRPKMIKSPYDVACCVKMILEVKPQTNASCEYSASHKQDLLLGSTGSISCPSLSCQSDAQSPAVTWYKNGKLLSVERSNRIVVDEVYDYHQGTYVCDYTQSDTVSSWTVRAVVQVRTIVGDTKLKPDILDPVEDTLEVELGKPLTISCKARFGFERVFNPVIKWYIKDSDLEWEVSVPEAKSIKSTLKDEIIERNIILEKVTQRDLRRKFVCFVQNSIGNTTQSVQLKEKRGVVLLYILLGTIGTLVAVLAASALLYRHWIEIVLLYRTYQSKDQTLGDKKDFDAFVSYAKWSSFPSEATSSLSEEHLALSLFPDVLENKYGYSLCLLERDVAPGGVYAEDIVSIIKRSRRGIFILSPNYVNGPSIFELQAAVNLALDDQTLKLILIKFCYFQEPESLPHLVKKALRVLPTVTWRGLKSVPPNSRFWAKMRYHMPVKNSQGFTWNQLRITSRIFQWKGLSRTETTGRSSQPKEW

B1: DGL219 (bispecific antibody)
chain 1: QVQLVESGGGLVQAGGSLRLSCAASGRTFSKHAMGWFRQAPGKEREFVAAIDWSGGSTYYADSVKGRFTISRDNAKNTVYLQMDSLKPEDTAVYYCAADSYTDYAQLWLPELESEYDYWGQGTLVTVSSPLAPDKTHTCPPCPAPEAAGAPSVFLFPPKPKDTLMISRTPEVTCVVVDVSHEDPEVKFNWYVDGVEVHNAKTKPREEQYNSTYRVVSVLTVLHQDWLNGKEYKCKVSNKALPAPIEKTISKAKGQPREPQVCTLPPSRDELTKNQVSLSCAVKGFYPSDIAVEWESNGQPENNYKTTPPVLDSDGSFFLVSKLTVDKSRWQQGNVFSCSVMHEALHNHYTQKSLSLSPGWSHPQFEK
chain 2: not shown
B2: DGL218 (bispecific antibody)
chain 1: QVQLVESGGGLVQAGGSLRLSCAASGRTFSKHAMGWFRQAPGKEREFVAAIDWSGGSTYYADSVKGRFTISRDNAKNTVYLQMDSLKPEDTAVYYCAADSYTDYAQLWLPELESEYDYWGQGTLVTVSSCPPCPAPEAAGAPSVFLFPPKPKDTLMISRTPEVTCVVVDVSHEDPEVKFNWYVDGVEVHNAKTKPREEQYNSTYRVVSVLTVLHQDWLNGKEYKCKVSNKALPAPIEKTISKAKGQPREPQVCTLPPSRDELTKNQVSLSCAVKGFYPSDIAVEWESNGQPENNYKTTPPVLDSDGSFFLVSKLTVDKSRWQQGNVFSCSVMHEALHNHYTQKSLSLSPGWSHPQFEK
chain 2: not shown
B3: DGL212 (bispecific antibody)
chain 1: QVQLVESGGGLVQAGGSLRLSCAASGRTFSKHAMGWFRQAPGKEREFVAAIDWSGGSTYYADSVKGRFTISRDNAKNTVYLQMDSLKPEDTAVYYCAADSYTDYAQLWLPELESEYDYWGQGTLVTVSSDKTHTCPPCPAPEAAGAPSVFLFPPKPKDTLMISRTPEVTCVVVDVSHEDPEVKFNWYVDGVEVHNAKTKPREEQYNSTYRVVSVLTVLHQDWLNGKEYKCKVSNKALPAPIEKTISKAKGQPREPQVCTLPPSRDELTKNQVSLSCAVKGFYPSDIAVEWESNGQPENNYKTTPPVLDSDGSFFLVSKLTVDKSRWQQGNVFSCSVMHEALHNHYTQKSLSLSPGWSHPQFEK
chain 2: not shown
B4: DGL208 (bispecific antibody)
chain 1: B1 chain 1
chain 2: not shown
B5: DGL210 (bispecific antibody)
chain 1: QVQLVESGGGLVQAGGSLRLSCAASGRTFSKHAMGWFRQAPGKEREFVAAIDWSGGSTYYADSVKGRFTISRDNAKNTVYLQMDSLKPEDTAVYYCAADSYTDYAQLWLPELESEYDYWGQGTLVTVSSGGGGSGGGGSGGGGSGGGGSCPPCPAPEAAGAPSVFLFPPKPKDTLMISRTPEVTCVVVDVSHEDPEVKFNWYVDGVEVHNAKTKPREEQYNSTYRVVSVLTVLHQDWLNGKEYKCKVSNKALPAPIEKTISKAKGQPREPQVCTLPPSRDELTKNQVSLSCAVKGFYPSDIAVEWESNGQPENNYKTTPPVLDSDGSFFLVSKLTVDKSRWQQGNVFSCSVMHEALHNHYTQKSLSLSPGWSHPQFEK
chain 2: QLQLVESGGGLVQAGGSLRLSCAASRSITFSHNVMGWYRQAPGKQRELVASIGSGGSTNYVDSVKGRATISRDNAKKTVYLQMNSLKPEDTAVYYCGVVVGVYRGSLGQGTLVTVSSGGGGSGGGGSGGGGSGGGGSCPPCPAPEAAGAPSVFLFPPKPKDTLMISRTPEVTCVVVDVSHEDPEVKFNWYVDGVEVHNAKTKPREEQYNSTYRVVSVLTVLHQDWLNGKEYKCKVSNKALPAPIEKTISKAKGQPREPQVYTLPPCRDELTKNQVSLWCLVKGFYPSDIAVEWESNGQPENNYKTTPPVLDSDGSFFLYSKLTVDKSRWQQGNVFSCSVMHEALHNHYTQKSLSLSPGEPEA
B6: DGL211 (bispecific antibody)
chain 1: QVQLVESGGGLVQAGGSLRLSCAASGRTFSKHAMGWFRQAPGKEREFVAAIDWSGGSTYYADSVKGRFTISRDNAKNTVYLQMDSLKPEDTAVYYCAADSYTDYAQLWLPELESEYDYWGQGTLVTVSSEKSYGPPCPPCPAPEAAGAPSVFLFPPKPKDTLMISRTPEVTCVVVDVSHEDPEVKFNWYVDGVEVHNAKTKPREEQYNSTYRVVSVLTVLHQDWLNGKEYKCKVSNKALPAPIEKTISKAKGQPREPQVCTLPPSRDELTKNQVSLSCAVKGFYPSDIAVEWESNGQPENNYKTTPPVLDSDGSFFLVSKLTVDKSRWQQGNVFSCSVMHEALHNHYTQKSLSLSPGWSHPQFEK
chain 2: QLQLVESGGGLVQAGGSLRLSCAASRSITFSHNVMGWYRQAPGKQRELVASIGSGGSTNYVDSVKGRATISRDNAKKTVYLQMNSLKPEDTAVYYCGVVVGVYRGSLGQGTLVTVSSEKSYGPPCPPCPAPEAAGAPSVFLFPPKPKDTLMISRTPEVTCVVVDVSHEDPEVKFNWYVDGVEVHNAKTKPREEQYNSTYRVVSVLTVLHQDWLNGKEYKCKVSNKALPAPIEKTISKAKGQPREPQVYTLPPCRDELTKNQVSLWCLVKGFYPSDIAVEWESNGQPENNYKTTPPVLDSDGSFFLYSKLTVDKSRWQQGNVFSCSVMHEALHNHYTQKSLSLSPGEPEA
B7: DGL213 (bispecific antibody)
chain 1: B3 chain 1
chain 2: QLQLVESGGGLVQAGGSLRLSCAASRSITFSHNVMGWYRQAPGKQRELVASIGSGGSTNYVDSVKGRATISRDNAKKTVYLQMNSLKPEDTAVYYCGVVVGVYRGSLGQGTLVTVSSCPPCPAPEAAGAPSVFLFPPKPKDTLMISRTPEVTCVVVDVSHEDPEVKFNWYVDGVEVHNAKTKPREEQYNSTYRVVSVLTVLHQDWLNGKEYKCKVSNKALPAPIEKTISKAKGQPREPQVYTLPPCRDELTKNQVSLWCLVKGFYPSDIAVEWESNGQPENNYKTTPPVLDSDGSFFLYSKLTVDKSRWQQGNVFSCSVMHEALHNHYTQKSLSLSPGEPEA
B8: DGL215 (bispecific antibody)
chain 1: B3 chain 1
chain 2: QLQLVESGGGLVQAGGSLRLSCAASRSITFSHNVMGWYRQAPGKQRELVASIGSGGSTNYVDSVKGRATISRDNAKKTVYLQMNSLKPEDTAVYYCGVVVGVYRGSLGQGTLVTVSSPLAPCPPCPAPEAAGAPSVFLFPPKPKDTLMISRTPEVTCVVVDVSHEDPEVKFNWYVDGVEVHNAKTKPREEQYNSTYRVVSVLTVLHQDWLNGKEYKCKVSNKALPAPIEKTISKAKGQPREPQVYTLPPCRDELTKNQVSLWCLVKGFYPSDIAVEWESNGQPENNYKTTPPVLDSDGSFFLYSKLTVDKSRWQQGNVFSCSVMHEALHNHYTQKSLSLSPGEPEA
B9: DGL217 (bispecific antibody)
chain 1: B3 chain 1
chain 2: B6 chain 2
B10: DGL216 (bispecific antibody)
chain 1: B3 chain 1
chain 2: B5 chain 2
B11: DGL214 (bispecific antibody)
chain 1: B3 chain 1
chain 2: not shown

The first experiment addresses T1, IL-18 receptor (IL-18Rα and IL-18Rβ) on …. As to the kind of experiment: cell-based or functional assay.
As to B1, the “HEK-Blue assay, % human IL18” value was 35 % human IL18.
Still for that read-out and setting: for B2 the value was 44 % human IL18.

The next experiment shares this target. The experiment in a line: cell-based or functional assay. The source holds these as a separate data set.
With B3, the “HEK-Blue assay, % human IL-18” value is 41 % of human IL18 activity.
Same read-out and setting: for B4 the value was 44 % of human IL18 activity; for B5, 34 % of human IL18 activity.
As to B6, the “HEK-Blue assay, % human IL-18” value was 50 % of human IL18 activity.

The target is the same in the next experiment. The experiment in a line: cell-based or functional assay. The source holds these as a separate data set.
With B7, the “HEK-Blue assay, % human IL18” value was found to be 42 % human IL18.
Take B8: the “HEK-Blue assay, % human IL18” value was determined as 40 % human IL18.
Consider B9, for which the “HEK-Blue assay, % human IL18” value came to 45 % human IL18.
B10: the “HEK-Blue assay, % human IL18” value stood at 22 % human IL18.
As to B11, the “HEK-Blue assay, % human IL18” value was found to be 31 % human IL18.
